Tests used:
Test in all cases: SPOT array
[1] = target: T1, Boi1 SH3 (BOI1_YEAST), P38041
T1 chain: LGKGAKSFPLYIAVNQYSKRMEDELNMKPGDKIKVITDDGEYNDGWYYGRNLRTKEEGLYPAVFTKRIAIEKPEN

[2] = target: T2, Boi2 SH3 (BOI2_YEAST), P39969
T2 chain: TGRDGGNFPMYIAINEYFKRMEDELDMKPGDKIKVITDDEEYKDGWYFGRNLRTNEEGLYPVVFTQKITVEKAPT

[3] = target: T3, Myo5 SH3 (MYO5_YEAST), Q04439
T3 chain: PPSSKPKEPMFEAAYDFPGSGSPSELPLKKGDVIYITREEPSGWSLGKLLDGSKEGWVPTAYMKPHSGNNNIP

[4] = target: T4, Rvs167 SH3 (RV167_YEAST), P39743
T4 chain: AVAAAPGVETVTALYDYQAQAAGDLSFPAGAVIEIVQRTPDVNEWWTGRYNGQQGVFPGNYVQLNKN

[5] = target: Sho1 SH3 (SHO1_YEAST), P40073
Sequence of Sho1 SH3 (SHO1_YEAST), P40073 (P40073 295-366): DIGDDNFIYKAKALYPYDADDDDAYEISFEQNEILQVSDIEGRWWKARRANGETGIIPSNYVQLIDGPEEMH

[6] = target: T5, Yfr024 SH3 (LSB3_YEAST), P43603
T5 chain: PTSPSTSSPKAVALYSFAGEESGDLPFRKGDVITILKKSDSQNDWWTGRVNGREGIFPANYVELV

[7] = target: T6, Yhr016c SH3 (YSC84_YEAST), P32793
T6 chain: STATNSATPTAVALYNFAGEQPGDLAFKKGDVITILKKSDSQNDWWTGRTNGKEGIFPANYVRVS

Binder | normalised SPOT signal, Boehringer light units (BLU); mean over the file's lines of this peptide [1] | normalised SPOT signal, Boehringer light units (BLU); mean over the file's lines of this peptide [2] | normalised SPOT signal, Boehringer light units (BLU); mean over the file's lines of this peptide [3] | normalised SPOT signal, Boehringer light units (BLU); mean over the file's lines of this peptide [4] | normalised SPOT signal, Boehringer light units (BLU); mean over the file's lines of this peptide [5] | normalised SPOT signal, Boehringer light units (BLU); mean over the file's lines of this peptide [6] | normalised SPOT signal, Boehringer light units (BLU); mean over the file's lines of this peptide [7]
MLNSKHYPYIPVAN [YBR096W 107-120] | 57.3 | 50 | 171 | 368 | 35 | 595 | 128
MPNLKRLPIPPLQD [YAR035W 1-14] | 80.9 | 23 | 307 | 65.7 | 24500 | 489 | 83.4
MQSKKEDPNRPKNL [YMR241W 242-255] | 898 | 50.2 | 154 | 153 | 44.8 | 716 | 126
MRRSKDAPIEPPKY [YOR346W 669-682] | 555 | 688 | 155 | 1200 | 149 | 2300 | 1050
MSWSKERPESPLSR [YDR265W 311-324] | 1020 | 104 | 268 | 243 | 155 | 1750 | 168
MTQPKKNPMEPKTD [YDL148C 252-265] | 37.8 | 76.8 | 147 | 181 | 15.9 | 404 | 60.7
MTVPRNRPMAPFGT [YLR064W 1-14] | 1210 | 55.2 | 596 | 187 | 186 | 466 | 213
